Molecular target: T1, His6-Ddx21_(motif2) (human, UniProt Q9NR30 1-783, motif2 (aa440–444) -RTIIF- to -RTAIA-)
T1 construct: Site-directed mutagenesis of pRSET-A-DDX21; also called mut2; (aa440–444: motif2); source: E. coli DH5α, purified (SP-Sepharose, Ni-NTA)
T1 sequence (looked up): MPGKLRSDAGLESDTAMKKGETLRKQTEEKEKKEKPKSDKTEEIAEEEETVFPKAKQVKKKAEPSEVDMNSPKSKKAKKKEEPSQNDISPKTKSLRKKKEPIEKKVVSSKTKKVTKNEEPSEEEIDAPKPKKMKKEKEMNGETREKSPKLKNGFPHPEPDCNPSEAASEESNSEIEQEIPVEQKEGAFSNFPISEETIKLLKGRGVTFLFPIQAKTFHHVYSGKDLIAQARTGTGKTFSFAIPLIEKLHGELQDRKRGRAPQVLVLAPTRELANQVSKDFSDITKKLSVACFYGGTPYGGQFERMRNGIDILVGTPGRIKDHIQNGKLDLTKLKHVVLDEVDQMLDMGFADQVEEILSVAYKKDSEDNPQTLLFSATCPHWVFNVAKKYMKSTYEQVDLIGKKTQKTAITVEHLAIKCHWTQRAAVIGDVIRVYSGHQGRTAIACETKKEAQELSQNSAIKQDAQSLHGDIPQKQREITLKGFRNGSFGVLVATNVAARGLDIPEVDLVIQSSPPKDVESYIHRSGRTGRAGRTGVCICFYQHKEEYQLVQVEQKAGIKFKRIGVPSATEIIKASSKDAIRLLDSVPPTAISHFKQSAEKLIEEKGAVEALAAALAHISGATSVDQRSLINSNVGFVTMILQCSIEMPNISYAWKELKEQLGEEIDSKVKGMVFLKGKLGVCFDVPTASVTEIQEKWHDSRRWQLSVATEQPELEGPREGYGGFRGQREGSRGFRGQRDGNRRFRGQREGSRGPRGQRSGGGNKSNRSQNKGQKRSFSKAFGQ
Test: pull-down; 300 ng PP1 and 200 ng His6-Ddx21 in 25 mM Tris pH 7.5, 5% glycerol, 150 mM NaCl, 0.5% Igepal630, 10 mM imidazole, 4°C; Ni-NTA beads; wash 450 mM NaCl, 0.5% Tween-20 (γ: 500 mM NaCl, 0.75% Tween-20); western blot
Conditions: both partners purified

- binding result: binds
B1: PP1β, bacterially expressed and purified (enzyme, human, UniProt P62140 1-327, looked up)
chain: MADGELNVDSLITRLLEVRGCRPGKIVQMTEAEVRGLCIKSREIFLSQPILLELEAPLKICGDIHGQYTDLLRLFEYGGFPPEANYLFLGDYVDRGKQSLETICLLLAYKIKYPENFFLLRGNHECASINRIYGFYDECKRRFNIKLWKTFTDCFNCLPIAAIVDEKIFCCHGGLSPDLQSMEQIRRIMRPTDVPDTGLLCDLLWSDPDKDVQGWGENDRGVSFTFGADVVSKFLNRHDLDLICRAHQVVEDGYEFFAKRQLVTLFSAPNYCGEFDNAGGMMSVDETLMCSFQILKPSEKKAKYQYGGLNSGRPVTPPRTANPPKKR
notes: Protein phosphatase 1 catalytic subunit, isoform β, human; also called protein phosphatase 1 beta

Source: PMC3386289, “Isolation of Human Mitotic Protein Phosphatase Complexes: Identification of a Complex between Protein Phosphatase 1 and the RNA Helicase Ddx21” (PLoS ONE, 2012)
